Experimental findings from paper doi:10.1101/2022.11.04.515266 are described below.

Assay [1] addresses Sinorhizobium meliloti Clr, C-terminally His6-tagged (Sinorhizobium meliloti). In words: crystal structure.
For assay [2] the target is unchanged. Description: SEC. In general terms: Size exclusion chromatography separates by hydrodynamic size, large species first.

The term stoichiometry N denotes a count of units in the complex or per binding partner. As for “Sinorhizobium meliloti Clr, C-terminally His6-tagged (natural protein)”, the stoichiometry N in assay [1] came out at 2. For the same substance, the percent in the monomeric state (monomer-dimer equilibrium) in assay [2] is 86%.
